For assay [1], the target named is T1, CD40 (Homo sapiens, UniProt P25942).
T1 construct: expressed in transfected cells; host or cells: HEK 293T
The assay is described as follows: TRAF binding to CD40 in cell lysate: separately expressed extracts mixed 1:1, ELISA. To be noted: extracts mixed 1:1, over night at 4° C. The text has this: To measure TRAF recruitment to CD40 many studies relied on experimental systems that probe TRAF binding to synthetic peptides or soluble fragments of the CD40 signaling domain (Rothe et al. 1994, Hu et al. 1994, Cheng et al. 1995, Mosialos et al. 1995, Ishida et al. it 1996, Ishida et al. b 1996, Boucher et al. 1997, Pullen et al. 1998 and Pullen et al. 1999). […] Therefore, recruitment of TRAF1 and TRAF2 by CD40 intact cells versus cell lysate was compared. In the experiment, CD40 and TRAF1 or TRAF2 were co-expressed or expressed separately in 293T cells (constructs described in example 7 below). Plasmid concentrations and ratios were identical to the experiment described in example 1. After 27 hours, the cells were detergent lysed as in example 1. The extracts from 293T cells expressing only CD40 or the TRAF of interest were mixed at a 1:1 ratio and incubated over night at 4° C. Extracts expressing both CD40 and the TRAF of interest were kept under identical conditions. Then the samples were incubated on microtiter plates coated with a mAb against the extra-cellular domain of CD40 as described in example 1. After a washing step, CD40 bound TRAFs were detected with anti TRAF antibodies (example 1). Quantitation of TRAF recruited to CD40 was carried out as described in the example 3 below.
Background: ELISA stands for enzyme-linked immunosorbent assay.

The target in assay [2] is T2, p75TNFR (Homo sapiens, UniProt P20333+P25942).
T2 construct: cDNA fragments encoding for the transmembrane and cytoplasmic domains of the LTβR, TACI, the p75TNF receptor, CD27; expressed in transfected cells; host or cells: 293T
T2 sequence (P25942+P20333 fused): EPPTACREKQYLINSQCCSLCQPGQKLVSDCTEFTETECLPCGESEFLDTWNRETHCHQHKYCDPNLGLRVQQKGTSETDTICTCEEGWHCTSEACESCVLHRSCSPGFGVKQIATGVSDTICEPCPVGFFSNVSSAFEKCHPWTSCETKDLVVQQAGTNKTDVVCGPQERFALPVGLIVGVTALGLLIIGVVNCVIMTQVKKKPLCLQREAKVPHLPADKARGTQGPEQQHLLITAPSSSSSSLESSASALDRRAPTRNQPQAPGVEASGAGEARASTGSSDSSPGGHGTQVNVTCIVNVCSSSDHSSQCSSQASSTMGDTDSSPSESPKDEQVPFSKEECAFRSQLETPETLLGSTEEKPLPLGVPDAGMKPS
Description: Recruitment assay with hybrid receptor (CD40 extracellular domain, p75TNFR transmembrane and intracellular domain). To be noted: 293T cells, CD40 as relative standard. Type of assay: cell-based. The protocol:
The recruitment of TRAF to CD40 can be quantitatively measured using the assay described in example 1. For that purpose, the assay conditions were adjusted in such a way that TRAF expression was in significant excess over the expression of CD40. This was the case when the TRAF expression plasmid was used at a two to three fold excess over the CD40 expression plasmid. The CD40 bound TRAF concentration was measured as described in example 1. A reference extract containing CD40/TRAF complexes served as a standard in each assay. This standard extract consisted of a large pool extract from cells that had been co-transfected with the plasmids encoding CD40/TRAF1, CD40/TRAF2, CD40/TRAF3, CD40/TRAF5 and CD40/TRAF6. The extracts were tested for the presence of CD40/TRAF complexes and the complex concentrations in each extract were arbitrarily defined as 1000 U/ml. The extracts were frozen in small aliquots and kept at −80° C. until further use. […] The necessary normalization for sample-to-sample variations in the CD40 expression was calculated with the following formula: […]
Recruitment of various TRAFs to receptors different to CD40, was tested by the recruitment assay described in example 1 by transforming cells with expression plasmids encoding hybrids receptors comprising the extracellular domain of CD40 and transmembrane and intracellular domain of anyone of the following receptors: BCMA (Madry et al. 1998 and Hatzoglou et al. 2000) the LTβR-receptor (Mosialos et al. 1995, Crowe et al. 1994, Nakano et al. 1996), TACI (von Bulow et al. 1997, Xia et al. 2000) the p75TNFR (Rothe et al. 1994) and the CD27 (Gravestein et al. 1998, Akiba et al. 1998) (for details of constructs see example 7). Measurement of TRAF recruitment to the signalling domains of BCMA the LTβR-receptor TACI the p75TNFR or the CD27 was carried out by co-transfecting 293T cells with a plasmid encoding anyone of the above hybrid receptors together with a plasmid encoding TRAF and measurement of the TRAF/Receptor complex using the ELISA sandwich described in example 1 and the quantitation as described in example 3. […]

Assay [3] deals with T3, LTβR (Homo sapiens, UniProt P25942+P36941).
T3 construct: cDNA fragments encoding for the transmembrane and cytoplasmic domains of the LTβR, TACI, the p75TNF receptor, CD27; expressed in transfected cells; host or cells: 293T
T3 sequence (P25942+P36941 fused): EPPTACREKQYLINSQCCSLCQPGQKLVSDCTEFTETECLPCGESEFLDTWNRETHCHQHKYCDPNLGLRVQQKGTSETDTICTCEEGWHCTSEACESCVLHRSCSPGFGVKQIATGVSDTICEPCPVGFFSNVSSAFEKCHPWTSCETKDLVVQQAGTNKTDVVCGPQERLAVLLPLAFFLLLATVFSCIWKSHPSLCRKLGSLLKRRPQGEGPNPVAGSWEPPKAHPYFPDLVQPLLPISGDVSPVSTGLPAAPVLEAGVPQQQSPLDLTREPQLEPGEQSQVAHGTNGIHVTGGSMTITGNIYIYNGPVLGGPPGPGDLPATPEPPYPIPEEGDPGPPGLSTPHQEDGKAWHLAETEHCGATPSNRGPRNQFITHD
The assay is described as follows: Recruitment assay with hybrid receptor (CD40 extracellular domain, LTβR transmembrane and intracellular domain). It counts as cell-based. To be noted: 293T cells, CD40 as relative standard. The protocol: The recruitment of TRAF to CD40 can be quantitatively measured using the assay described in example 1. For that purpose, the assay conditions were adjusted in such a way that TRAF expression was in significant excess over the expression of CD40. This was the case when the TRAF expression plasmid was used at a two to three fold excess over the CD40 expression plasmid. The CD40 bound TRAF concentration was measured as described in example 1. A reference extract containing CD40/TRAF complexes served as a standard in each assay. This standard extract consisted of a large pool extract from cells that had been co-transfected with the plasmids encoding CD40/TRAF1, CD40/TRAF2, CD40/TRAF3, CD40/TRAF5 and CD40/TRAF6. The extracts were tested for the presence of CD40/TRAF complexes and the complex concentrations in each extract were arbitrarily defined as 1000 U/ml. The extracts were frozen in small aliquots and kept at −80° C. until further use. By comparing unknown samples to these extracts, it was possible to determine the relative CD40-TRAF complex concentrations in arbitrary units. The necessary normalization for sample-to-sample variations in the CD40 expression was calculated with the following formula: […]
Recruitment of various TRAFs to receptors different to CD40, was tested by the recruitment assay described in example 1 by transforming cells with expression plasmids encoding hybrids receptors comprising the extracellular domain of CD40 and transmembrane and intracellular domain of anyone of the following receptors: BCMA (Madry et al. 1998 and Hatzoglou et al. 2000) the LTβR-receptor (Mosialos et al. 1995, Crowe et al. 1994, Nakano et al. 1996), TACI (von Bulow et al. 1997, Xia et al. 2000) the p75TNFR (Rothe et al. 1994) and the CD27 (Gravestein et al. 1998, Akiba et al. 1998) (for details of constructs see example 7). Measurement of TRAF recruitment to the signalling domains of BCMA the LTβR-receptor TACI the p75TNFR or the CD27 was carried out by co-transfecting 293T cells with a plasmid encoding anyone of the above hybrid receptors together with a plasmid encoding TRAF and measurement of the TRAF/Receptor complex using the ELISA sandwich described in example 1 and the quantitation as described in example 3. The assay with the hybrid receptors is schematically represented in FIG. 4A. The results shown in FIG. 4B indicate that, using the assay monitoring recruitment in intact cells, any TRAF recruiting receptor of the TNF/NGF family can be examined with the same antibody sandwich assay described in example 1 and the amount of TRAF-receptor/CD40 hybrid complex can be monitored as described in example 3. […] Recruitment of TRAF3 to all the receptors tested is similar. […]

T1 sequence (P25942 21-277): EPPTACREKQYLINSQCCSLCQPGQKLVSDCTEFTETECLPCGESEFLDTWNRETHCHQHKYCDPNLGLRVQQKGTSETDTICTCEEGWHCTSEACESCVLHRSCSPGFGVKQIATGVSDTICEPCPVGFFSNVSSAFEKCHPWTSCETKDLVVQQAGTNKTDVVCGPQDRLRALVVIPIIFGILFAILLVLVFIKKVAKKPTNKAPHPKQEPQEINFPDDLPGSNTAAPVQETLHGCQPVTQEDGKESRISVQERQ

B1: TRAF2: TNF receptor associated factor 2, human adaptor protein expressed from pcDNA3 (protein, UniProt Q12933 1-501, looked up)
chain: MAAASVTPPGSLELLQPGFSKTLLGTKLEAKYLCSACRNVLRRPFQAQCGHRYCSFCLASILSSGPQNCAACVHEGIYEEGISILESSSAFPDNAARREVESLPAVCPSDGCTWKGTLKEYESCHEGRCPLMLTECPACKGLVRLGEKERHLEHECPERSLSCRHCRAPCCGADVKAHHEVCPKFPLTCDGCGKKKIPREKFQDHVKTCGKCRVPCRFHAIGCLETVEGEKQQEHEVQWLREHLAMLLSSVLEAKPLLGDQSHAGSELLQRCESLEKKTATFENIVCVLNREVERVAMTAEACSRQHRLDQDKIEALSSKVQQLERSIGLKDLAMADLEQKVLEMEASTYDGVFIWKISDFARKRQEAVAGRIPAIFSPAFYTSRYGYKMCLRIYLNGDGTGRGTHLSLFFVVMKGPNDALLRWPFNQKVTLMLLDQNNREHVIDAFRPDVTSSSFQRPVNDMNIASGCPLFCPVSKMEAKNSYVRDDAIFIKAIVDLTGL
modifications: full-length
notes: TNF receptor associated factor 2, human adaptor protein expressed from pcDNA3
For the molecule B1, in assay [1], the “binding to CD40 in cell lysate” value was “barely detectable”. Besides, in assay [2], the “recruitment to p75TNFR, folds higher than recruitment to CD40” value is on record as “about 60 fold”. In assay [3], the “recruitment to LTβR, folds higher than recruitment to CD40” value was “about 60 fold”.

B2: TRAF1: TNF receptor associated factor 1, adaptor protein overexpressed in 293T cells from pcDNA3 (protein, UniProt Q13077 1-416, looked up)
chain: MASSSGSSPRPAPDENEFPFGCPPTVCQDPKEPRALCCAGCLSENPRNGEDQICPKCRGEDLQSISPGSRLRTQEKAHPEVAEAGIGCPFAGVGCSFKGSPQSVQEHEVTSQTSHLNLLLGFMKQWKARLGCGLESGPMALEQNLSDLQLQAAVEVAGDLEVDCYRAPCSESQEELALQHFMKEKLLAELEGKLRVFENIVAVLNKEVEASHLALATSIHQSQLDRERILSLEQRVVELQQTLAQKDQALGKLEQSLRLMEEASFDGTFLWKITNVTRRCHESACGRTVSLFSPAFYTAKYGYKLCLRLYLNGDGTGKRTHLSLFIVIMRGEYDALLPWPFRNKVTFMLLDQNNREHAIDAFRPDLSSASFQRPQSETNVASGCPLFFPLSKLQSPKHAYVKDDTMFLKCIVETST
modifications: full-length
notes: TNF receptor associated factor 1, adaptor protein overexpressed in 293T cells from pcDNA3
Take B2: in assay [1], the “binding to CD40 in cell lysate” value is given as “barely detectable”. Further, in assay [2], the “recruitment to p75TNFR, folds higher than recruitment to CD40” value came to 25 fold. Moreover, in assay [3], the “recruitment to LTβR, folds higher than recruitment to CD40” value is given as 25 fold.
